Data published in patent publication EP3145530B1.

Legend:
TRAIL-R1/DR4 (human) = TRAIL-R1/DR4 (human) (UniProt O00220); assay: cell-based or functional assay
TRAIL-R2/DR5 (human) = TRAIL-R2/DR5 (human) (UniProt O14763); assay: cell-based or functional assay
Chain of UniProt O14763 (O14763 56-440): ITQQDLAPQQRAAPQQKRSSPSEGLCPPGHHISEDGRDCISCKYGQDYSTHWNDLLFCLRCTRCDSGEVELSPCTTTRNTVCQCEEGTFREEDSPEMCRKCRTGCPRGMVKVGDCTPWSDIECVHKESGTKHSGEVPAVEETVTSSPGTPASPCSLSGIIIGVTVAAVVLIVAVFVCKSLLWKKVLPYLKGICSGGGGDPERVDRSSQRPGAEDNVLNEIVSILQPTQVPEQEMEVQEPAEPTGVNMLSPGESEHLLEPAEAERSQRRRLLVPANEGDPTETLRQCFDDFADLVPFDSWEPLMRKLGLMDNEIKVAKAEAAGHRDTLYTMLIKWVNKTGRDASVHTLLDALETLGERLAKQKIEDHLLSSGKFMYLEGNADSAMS

Chain of UniProt O00220 (O00220 24-468): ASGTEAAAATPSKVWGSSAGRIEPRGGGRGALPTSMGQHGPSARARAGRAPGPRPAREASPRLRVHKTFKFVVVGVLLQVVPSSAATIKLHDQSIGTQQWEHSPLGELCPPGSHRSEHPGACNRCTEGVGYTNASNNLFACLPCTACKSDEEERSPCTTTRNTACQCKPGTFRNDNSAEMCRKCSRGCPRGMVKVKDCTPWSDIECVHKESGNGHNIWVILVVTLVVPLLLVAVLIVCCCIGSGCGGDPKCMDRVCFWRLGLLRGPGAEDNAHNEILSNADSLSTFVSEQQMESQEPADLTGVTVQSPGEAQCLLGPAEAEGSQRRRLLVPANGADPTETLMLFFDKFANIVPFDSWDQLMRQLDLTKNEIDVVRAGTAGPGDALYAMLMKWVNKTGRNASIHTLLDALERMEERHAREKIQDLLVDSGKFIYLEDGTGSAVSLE

## TRAIL (TNF-related apoptosis-inducing ligand)
TRAIL-R1/DR4 (human)
  fold increase in induced cell death (MTT, 3 h) of human primary HSCs treated at day 7 versus day 1: 4.5 fold
  fold increase in induced cell death (MTT, 3 h) of human primary HSCs treated at day 14 versus day 1: 7.5 fold
  fold increase in induced cell death (MTT, 3 h) of human primary PSCs from day 1 to day 14: 5.5 fold
TRAIL-R2/DR5 (human)
  fold increase in induced cell death (MTT, 3 h) of human primary HSCs treated at day 7 versus day 1: 4.5 fold
  fold increase in induced cell death (MTT, 3 h) of human primary HSCs treated at day 14 versus day 1: 7.5 fold
  fold increase in induced cell death (MTT, 3 h) of human primary PSCs from day 1 to day 14: 5.5 fold
